# Values of other authors as cited in patent US20140212945.
# Molecular target: T1, MBNL1 (muscleblind-like 1 protein) (UniProt Q9NR56)
# T1 sequence: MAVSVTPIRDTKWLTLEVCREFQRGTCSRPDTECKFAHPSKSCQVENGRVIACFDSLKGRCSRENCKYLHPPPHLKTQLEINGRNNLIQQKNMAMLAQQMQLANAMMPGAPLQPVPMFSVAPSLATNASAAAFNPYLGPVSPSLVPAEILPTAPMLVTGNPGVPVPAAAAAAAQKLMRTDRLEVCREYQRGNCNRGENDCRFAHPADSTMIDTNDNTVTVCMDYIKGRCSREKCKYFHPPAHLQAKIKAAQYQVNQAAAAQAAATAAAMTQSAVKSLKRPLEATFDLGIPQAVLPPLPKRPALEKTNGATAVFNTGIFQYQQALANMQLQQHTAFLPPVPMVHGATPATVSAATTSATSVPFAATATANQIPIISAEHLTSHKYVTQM
# Settings: CITED; value taken from previous report (ref 15 / ref 13); Table 5 lists the same value for r(CUG)exp
substance,measurement,value
r(CUG)12x2,Kd,250 nM
